The results in this text go back to article PMC9508154.

The target in this experiment is eIF5-CTD_(-CTT)-EE, phosphomimetic mutant S389E/S390E (human) (UniProt P55010). Kind of experiment: NMR titration.
Sequence of UniProt P55010 (P55010 232-431 S389E/S390E): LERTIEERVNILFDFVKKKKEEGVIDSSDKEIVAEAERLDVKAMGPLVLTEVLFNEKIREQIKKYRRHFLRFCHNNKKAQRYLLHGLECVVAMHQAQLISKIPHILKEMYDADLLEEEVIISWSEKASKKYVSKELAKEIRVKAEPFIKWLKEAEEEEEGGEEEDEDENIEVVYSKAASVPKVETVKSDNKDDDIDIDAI

On to “N-terminal tail of the β subunit of eIF2 (eIF2β-NTT) (domain or fragment)”, for which the % CSP reduction at E17 of eIF1A-ΔC bound to m7 worked out at 83%, the % CSP reduction at G5 of eIF1A-ΔC bound to m7 worked out at 95%, the % CSP reduction at L25 of eIF1A-ΔC bound to m7 stood at 62% and the % CSP reduction at V26 of eIF1A-ΔC bound to m7 was 38%. The substance also had a % CSP reduction at W69 of eIF1A-ΔC bound to m7 of 63%.
In the case of “eIF1A N-terminal tail (eIF1A-NTT) (domain or fragment)”, the % CSP reduction at E17 of eIF1A-ΔC bound to m7 was 32%, the % CSP reduction at G5 of eIF1A-ΔC bound to m7 was found to be 40%, the % CSP reduction at L25 of eIF1A-ΔC bound to m7 turned out to be 20% and the % CSP reduction at V26 of eIF1A-ΔC bound to m7 came to 24%. Moreover, the % CSP reduction at W69 of eIF1A-ΔC bound to m7 is 22% and the % CSP reduction at Y83 of eIF1A-ΔC bound to m7 is 18%.
